Usually IC50 stands for the concentration needed to halve the response being measured.

Consider 15 molecules from patent US20190300590A1 (PROTAGONIST THERAPEUTICS, published 2019).

Where two headings read alike, the source gives them in different places. *1 amine or outer side, *2 acyl side, *3 side chain or, on linkers, in order; H or OH if unused. Bridges are numbered along the chain shown (N, C = ends). Primed or numbered codes have the meaning given here. [ ]: non-standard residue; d: D form. Phe(4-(2-acetylaminoethoxy)) = 4-(2-acetamidoethoxy)-phenylalanine, CC(=O)NCCOc1ccc(C[C@H](N[*:1])C(=O)[*:2])cc1; Phe(4-OMe)(3) = O-methyl-L-tyrosine (4-methoxy-L-phenylalanine), COc1ccc(C[C@H](N[*:1])C(=O)[*:2])cc1; Phe(4-OMe) = 4-methoxy-L-phenylalanine (O-methyl-L-tyrosine), COc1ccc(C[C@H](N[*:1])C(=O)[*:2])cc1; Tyr(Ph) = N[C@@H](Cc1ccc(Oc2ccccc2)cc1)C(=O)O; Abu(4-yl) = O=C([C@H](CC[*:3])N[*:1])[*:2]; 2Nal = N[C@@H](Cc1ccc2ccccc2c1)C(=O)O; AEF = NCCOc1ccc(C[C@H](N)C(=O)O)cc1; Cha = N[C@@H](CC1CCCCC1)C(=O)O; αMeL = CC(C)C[C@](C)(N)C(=O)O; hLeu = CC(C)CC[C@H](N)C(=O)O; αMeK = C[C@](N)(CCCCN)C(=O)O; Abu = CC[C@H](N)C(=O)O; βAla = NCCC(=O)O Bounds are passed on as bounds.

Assay [1] addresses T1, IL23R_huFC (human, UniProt Q5VWK5 24-353).
T1 sequence (looked up): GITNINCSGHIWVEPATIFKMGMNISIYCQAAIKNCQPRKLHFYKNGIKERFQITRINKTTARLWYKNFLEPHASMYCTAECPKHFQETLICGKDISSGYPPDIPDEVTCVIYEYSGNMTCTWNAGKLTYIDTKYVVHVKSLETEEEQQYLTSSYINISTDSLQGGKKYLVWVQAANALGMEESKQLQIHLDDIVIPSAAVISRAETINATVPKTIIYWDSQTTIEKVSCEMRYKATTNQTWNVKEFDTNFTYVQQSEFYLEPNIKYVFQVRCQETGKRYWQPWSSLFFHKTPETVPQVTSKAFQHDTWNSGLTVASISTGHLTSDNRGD
Put plainly: human ELISA vs IL-23. In general terms: In an ELISA, binding on a coated surface is turned into a signal by an enzyme label.

For assay [2], the target named is T2, IL-23R on human cells (IL-23R-expressing DB cells; human NK cells) (human, UniProt Q5VWK5 24-629).
T2 sequence (looked up): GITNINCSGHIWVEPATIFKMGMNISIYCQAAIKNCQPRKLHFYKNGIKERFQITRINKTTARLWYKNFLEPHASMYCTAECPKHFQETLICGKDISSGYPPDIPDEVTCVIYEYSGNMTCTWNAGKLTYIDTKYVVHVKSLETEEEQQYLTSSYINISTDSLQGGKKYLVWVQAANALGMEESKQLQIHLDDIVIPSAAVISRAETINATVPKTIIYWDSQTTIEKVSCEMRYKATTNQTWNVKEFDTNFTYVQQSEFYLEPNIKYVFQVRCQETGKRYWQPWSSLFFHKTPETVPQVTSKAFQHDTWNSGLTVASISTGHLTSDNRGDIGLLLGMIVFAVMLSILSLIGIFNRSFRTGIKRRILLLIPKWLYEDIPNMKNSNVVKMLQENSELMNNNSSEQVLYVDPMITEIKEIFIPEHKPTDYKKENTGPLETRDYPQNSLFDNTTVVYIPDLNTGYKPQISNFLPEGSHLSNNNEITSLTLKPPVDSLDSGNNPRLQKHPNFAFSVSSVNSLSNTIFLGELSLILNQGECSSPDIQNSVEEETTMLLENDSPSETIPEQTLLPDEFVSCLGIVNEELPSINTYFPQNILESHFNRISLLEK
As to the kind of experiment: cell-based or functional assay.

Assay [3] has as its target Rat IL-23R_huFC (rat). As to the kind of experiment: rat ELISA vs IL-23.
The target of assay [4] is T1, IL23R_huFC. As to the kind of experiment: human ELISA vs IL-23. The source holds these as a separate data set.
For assay [5], the target named is Rat IL-23R_huFC (rat). As to the kind of experiment: rat ELISA vs IL-23. The source holds these as a separate data set.

As for Ac-[Abu]QTWQC[Phe(4-OMe)][2Nal][αMeK]VNG-NH2 (thioether 1-6) [Ac-Cyclo-[[Abu]-QTWQC]-[Phe(4-OMe)]-[2-Nal]-[α-MeLys]-VNG-NH2], the half-inhibitory concentration (IC50) with IL23R_huFC [1] and with Rat IL-23R_huFC [3] was 25 to 100 nM in each case. Also, in assay [2], the “pStat3 HTRF IC50” value was less than 10 nM.
As for Ac-[Abu]QTWQC[Phe(4-OMe)(3)][2Nal][αMeK]K(Ac)QG-NH2 (thioether 1-6) [Ac-Cyclo-[[Abu]-QTWQC]-[Phe(4-OMe)]-[2-Nal][α-MeLys]-[Lys(Ac)]-QG-NH2], the IC50 with IL23R_huFC [1] and with Rat IL-23R_huFC [3] was 25 to 100 nM in each case. Moreover, the “pStat3 HTRF IC50” value in assay [2] is less than 10 nM.
For Ac-[Abu]QTWQC[Phe(4-(2-acetylaminoethoxy))][2Nal][αMeK](Ac)ENN-NH2 (thioether 1-6) [Ac-Cyclo-[[Abu]-QTWQC]-[Phe[4-(2-(acetyl-aminoethoxy)]]-[2-Nal]-[α-MeLys(Ac)]]-ENN-NH2], the IC50 in the assay with IL23R_huFC [4] and with Rat IL-23R_huFC [5] was less than 10 nM in each case. Moreover, in assay [2], the “pStat3 HTRF IC50” value is less than 10 nM.
For Ac-[Abu]QTWQC[Phe(4-(2-acetylaminoethoxy))][2Nal][αMeK](Ac)ENQ-NH2 (thioether 1-6) [Ac-Cyclo-[[Abu]-QTWQC]-[Phe[4-(2-(acetyl-aminoethoxy)]]-[2-Nal]-[α-MeLys(Ac)]-ENQ-NH2], the IC50 with IL23R_huFC [4] and with Rat IL-23R_huFC [5] was less than 10 nM throughout. Further, the “pStat3 HTRF IC50” value in assay [2] was less than 10 nM.
Turning to Ac-[Abu]QTWQC[AEF][2Nal][αMeL]ENN-NH2 (thioether 1-6) [Ac-Cyclo-[[Abu]-QTWQC]-[Phe[4-(2-aminoethoxy)]]-[2-Nal]-[α-MeLeu]-ENN-NH2], the IC50 with IL23R_huFC [4] and with Rat IL-23R_huFC [5] was less than 10 nM each time. Moreover, the “pStat3 HTRF IC50” value in assay [2] is less than 10 nM.
In the case of Ac-[Abu]QTWQC[AEF][2Nal][hLeu]K(Ac)N[βAla]-NH2 (thioether 1-6) [Ac-Cyclo-[[Abu]-QTWQC]-[Phe[4-(2-aminoethoxy)]]-[2-Nal]-[hLeu]-[Lys(Ac)]-N-[βAla]-NH2], the IC50 in the assay with IL23R_huFC [4] and in the assay with Rat IL-23R_huFC [5] was less than 10 nM throughout. In addition, in assay [2], the “pStat3 HTRF IC50” value is less than 10 nM.
For the molecule Ac-[Abu]QTWQC[2Nal][2Nal][αMeK]ENG-NH2 (thioether 1-6) [Ac-Cyclo-[[Abu]-QTWQC]-[2-Nal]-[2-Nal]-[α-MeLys]-ENG-NH2], the IC50 with IL23R_huFC [1] and in the assay with Rat IL-23R_huFC [3] was 25 to 100 nM each time.
Take Ac-[Abu]QTWQC[Phe(4-OMe)]W[αMeK]ENG-NH2 (thioether 1-6) [Ac-Cyclo-[[Abu]-QTWQC]-[Phe(4-OMe)]-W-[α-MeLys]-ENG-NH2]: the IC50 in the assay with Rat IL-23R_huFC [3] fell in the range of 25 to 100 nM.
XQTWQCFXXENG (as bracketed in name; thioether cyclo) [Ac-Cyclo-[[Abu]-QTWQC]-[Phe(4-OMe)]-[2-Nal]-[α-MeOrn]-ENG-NH2] had an IC50 with Rat IL-23R_huFC [3] of 25 to 100 nM.
With Ac-[Abu]QTWQC[Phe(4-OMe)][2Nal][Cha]K(Ac)NG-NH2 (thioether 1-6) [Ac-Cyclo-[[Abu]-QTWQC]-[Phe(4-OMe)]-[2-Nal]-[Cha]-[Lys(Ac)]-NG-NH2], the IC50 with IL23R_huFC [1] and in the assay with Rat IL-23R_huFC [3] was 25 to 100 nM throughout. Also, the “pStat3 HTRF IC50” value in assay [2] was less than 10 nM.
On to Ac-[Abu]QTWQC[Tyr(Ph)]W[αMeK]ENG-NH2 (thioether 1-6) [Ac-Cyclo-[[Abu]-QTWQC]-[Phe(4-phenoxy)]-W-[α-MeLys]-ENG-NH2], for which, in the assay with Rat IL-23R_huFC [3], the IC50 lay within 25 to 100 nM.

B1: Ac-E-Cyclo-[[Abu]-QTWQC]-[Phe[4-(2-aminoethoxy)]]-[2-Nal]-[α-MeLys]-ENN-NH2 (peptide)
peptide: Ac-E[Abu(4-yl)]QTWQC[AEF][2Nal][αMeK]ENN-NH2
modifications: thioether 2-7
SMILES: CC(=O)N[C@@H](CCC(=O)O)C(=O)N[C@H]1CCSC[C@@H](C(=O)N[C@@H](Cc2ccc(OCCN)cc2)C(=O)N[C@@H](Cc2ccc3ccccc3c2)C(=O)N[C@@](C)(CCCCN)C(=O)N[C@@H](CCC(=O)O)C(=O)N[C@@H](CC(N)=O)C(=O)N[C@@H](CC(N)=O)C(N)=O)NC(=O)[C@H](CCC(N)=O)NC(=O)[C@H](Cc2c[nH]c3ccccc23)NC(=O)[C@H]([C@@H](C)O)NC(=O)[C@H](CCC(N)=O)NC1=O
B1: the IC50 in the assay with IL23R_huFC [4] and with Rat IL-23R_huFC [5] was less than 10 nM each time. The “pStat3 HTRF IC50” value in assay [2] is less than 10 nM.
As for Ac-[dR][Abu]QTWQC[AEF][2Nal][αMeK]ENN-NH2 (thioether 2-7) [Ac-[(D)Arg]-Cyclo-[[Abu]-QTWQC]-[Phe[4-(2-aminoethoxy)]]-[2-Nal]-[α-MeLys]-ENN-NH2], the IC50 in the assay with IL23R_huFC [4] and in the assay with Rat IL-23R_huFC [5] was less than 10 nM in each case. The “pStat3 HTRF IC50” value in assay [2] is less than 10 nM.
Turning to Ac-[dQ][Abu]QTWQC[AEF][2Nal][αMeK]ENN-NH2 (thioether 2-7) [Ac-[(D)Gln]-Cyclo-[[Abu]-QTWQC]-[Phe[4-(2-aminoethoxy)]]-[2-Nal]-[α-MeLys]-ENN-NH2], the IC50 with IL23R_huFC [4] and with Rat IL-23R_huFC [5] was less than 10 nM in each case. Further, the “pStat3 HTRF IC50” value in assay [2] is less than 10 nM.

B2: Ac-Leu-Cyclo-[[Abu]-QTWQC]-[Phe[4-(2-aminoethoxy)]]-[2-Nal]-[α-MeLys]-ENN-NH2 (peptide)
peptide: Ac-L[Abu(4-yl)]QTWQC[AEF][2Nal][αMeK]ENN-NH2
modifications: thioether 2-7
SMILES: CC(=O)N[C@@H](CC(C)C)C(=O)N[C@H]1CCSC[C@@H](C(=O)N[C@@H](Cc2ccc(OCCN)cc2)C(=O)N[C@@H](Cc2ccc3ccccc3c2)C(=O)N[C@@](C)(CCCCN)C(=O)N[C@@H](CCC(=O)O)C(=O)N[C@@H](CC(N)=O)C(=O)N[C@@H](CC(N)=O)C(N)=O)NC(=O)[C@H](CCC(N)=O)NC(=O)[C@H](Cc2c[nH]c3ccccc23)NC(=O)[C@H]([C@@H](C)O)NC(=O)[C@H](CCC(N)=O)NC1=O
Consider B2, for which the IC50 with IL23R_huFC [4] and with Rat IL-23R_huFC [5] was less than 10 nM each time. In assay [2], the “pStat3 HTRF IC50” value is less than 10 nM.
